How the values were obtained:
[1] = target: Death-associated protein 3 (DAP3) (human, UniProt P51398 22-398); assay: co-immunoprecipitation with affi-gel-bound anti-Flag antibody from transfected HeLa cells; Western blot with anti-DAP3
Experimental: Briefly, equal numbers of HeLa cells were transfected with a control vector or Flag-epitope tagged N-terminus domain of BCL10 (aa. 1-97), C-terminus domain (aa. 104-233) or the full length BCL10. After 48 h of incubation, equal extracts (200 μg) from the transfected cells were incubated with a 50 μL of affi-gel-bound anti-Flag antibody. […] The expression of the Flag-BCL10 protein variants in the extracts (IB) was also assessed. β-actin was used as a loading control to ensure equal protein loading.

[2] = target: T1, human serum albumin (AffiGel 10-bound, HSA Column) (human, UniProt P02768 25-609); assay: AffiGel-HSA control column loaded with the HeLa S100 >800 kDa fraction; tandem mass spectrometry of the eluate
T1 construct: also called HSA control column

[3] = target: T1, human serum albumin (AffiGel 10-bound, …); assay: Western blot of the eluate of the HSA control column with specific primary antibodies

B1: Flag-epitope tagged N-terminus domain of BCL10 (aa. 1-97) (other, not shown: small tags and cut ends)
chain: MEPTAPSLTEEDLTEVKKDALENLRVYLCEKIIAERHFDHLRAKKILSREDTEEISCRTSSRKRAGKLLDYLQENPKGLDTLVESIRREKTQNFLIQ
notes: Expressed in transfected HeLa cells; also called amino terminal CARD domain (aa 1-97); CARD (N-terminus) domain of BCL10
[1]
  binding result: no binding

B2: Phosphatase of Regenerative Liver (PRL1/protein tyrosine phosphatase PTP4A1) (enzyme)
chain: MARMNRPAPVEVTYKNMRFLITHNPTNATLNKFIEELKKYGVTTIVRVCEATYDTTLVEKEGIHVLDWPFDDGAPPSNQIVDDWLSLVKIKFREEPGCCIAVHCVAGLGRAPVLVALALIEGGMKYEDAVQFIRQKRRGAFNSKQLLYLEKYRPKMRLRFKDSNGHRNNC
notes: Endogenous protein of HeLa cells; also called PRL1/PTP4A1
[2]
  binding result: no binding

B3: Insulin-like growth factor II (IGF-II) messenger RNA (mRNA)-binding protein-3 (IMP3) (other, UniProt O00425 1-579, looked up)
chain: MNKLYIGNLSENAAPSDLESIFKDAKIPVSGPFLVKTGYAFVDCPDESWALKAIEALSGKIELHGKPIEVEHSVPKRQRIRKLQIRNIPPHLQWEVLDSLLVQYGVVESCEQVNTDSETAVVNVTYSSKDQARQALDKLNGFQLENFTLKVAYIPDEMAAQQNPLQQPRGRRGLGQRGSSRQGSPGSVSKQKPCDLPLRLLVPTQFVGAIIGKEGATIRNITKQTQSKIDVHRKENAGAAEKSITILSTPEGTSAACKSILEIMHKEAQDIKFTEEIPLKILAHNNFVGRLIGKEGRNLKKIEQDTDTKITISPLQELTLYNPERTITVKGNVETCAKAEEEIMKKIRESYENDIASMNLQAHLIPGLNLNALGLFPPTSGMPPPTSGPPSAMTPPYPQFEQSETETVHLFIPALSVGAIIGKQGQHIKQLSRFAGASIKIAPAEAPDAKVRMVIITGPPEAQFKAQGRIYGKIKEENFVSPKEEVKLEAHIRVPSFAAGRVIGKGGKTVNELQNLSSAEVVVPRDQTPDENDQVVVKITGHFYACQVAQRKIQEILTQVKQHQQQKALQSGPPQSRRK
notes: Endogenous protein of HeLa cells; It describes the protein as IGF2BP3 with a mass of 63705 Da and also lists NP_006538; also called IMAP3; IGF2BP3
[3]
  binding result: no binding

Reference: patent publication US20210148907A1 (NATIONAL GUARD HEALTH AFFAIRS, published 2021)
